These results are taken from patent US20120301897A1, “ACETAMINOPHEN-PROTEIN ADDUCT ASSAY DEVICE AND METHOD” (BOARD OF TRUSTEES OF THE UNIVERSITY OF ARKANSAS, priority 2008, published 2012).

For series [1] the following is noted: human, in vivo.
Procedure: Serum samples were analyzed for acetaminophen-protein adducts (as measured by acetaminophen-cysteine or APAP-CYS) using a high-performance liquid chromatography with electrochemical detection (HPLC-EC) method. All serum samples were dialyzed, treated with protease, and then precipitated with trichloracetic acid.
The severity of liver injury was stratified by the highest recorded value for AST concentration.
The subgroups were based on the severity of toxicity defined as the highest recorded value for AST concentration for each patient over the period of hospitalization.
The conditions of series [2]: under overdose conditions; cited from earlier work.

With “3-(cystein-S-yl) APAP (3-Cys-A)-protein adducts [APAP-protein adducts]”, the “mean (±SD) half-life of adducts in serum” value in series [1] stood at 35.3 ± 7.2 h.
With `CC(=O)Nc1ccc(O)cc1` [APAP, Acetaminophen], the reported elimination half-life result in series [2] is “about 18 hours”.
